Assays:
Test in all cases: cell-based or functional assay
[1] = molecular target: T1, EBOV GP on rVSV particles (Ebola virus (EBOV), UniProt Q05320 33-676)
T1 sequence: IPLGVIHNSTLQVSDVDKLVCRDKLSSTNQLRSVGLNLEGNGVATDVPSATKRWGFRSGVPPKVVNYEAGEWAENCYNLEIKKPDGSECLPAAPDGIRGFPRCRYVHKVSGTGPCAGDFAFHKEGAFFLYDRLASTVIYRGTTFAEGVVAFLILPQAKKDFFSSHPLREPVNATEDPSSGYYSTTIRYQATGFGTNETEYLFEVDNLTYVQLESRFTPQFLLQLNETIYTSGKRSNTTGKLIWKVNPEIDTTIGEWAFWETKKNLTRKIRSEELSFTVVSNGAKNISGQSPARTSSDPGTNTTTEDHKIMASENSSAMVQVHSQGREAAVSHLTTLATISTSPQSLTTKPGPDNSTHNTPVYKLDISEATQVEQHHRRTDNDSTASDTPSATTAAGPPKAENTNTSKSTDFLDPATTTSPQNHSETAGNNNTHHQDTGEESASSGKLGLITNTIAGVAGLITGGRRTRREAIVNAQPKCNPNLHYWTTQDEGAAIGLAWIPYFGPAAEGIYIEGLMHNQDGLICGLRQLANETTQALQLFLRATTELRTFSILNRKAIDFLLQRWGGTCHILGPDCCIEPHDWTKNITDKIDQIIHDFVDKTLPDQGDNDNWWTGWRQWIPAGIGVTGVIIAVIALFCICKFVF

[2] = molecular target: BDBV GP on rVSV particles (Bundibugyo virus (BDBV))
[3] = molecular target: T2, TAFV GP on VSV pseudotype particles (Tai Forest virus (TAFV), UniProt Q66810 33-676)
T2 sequence: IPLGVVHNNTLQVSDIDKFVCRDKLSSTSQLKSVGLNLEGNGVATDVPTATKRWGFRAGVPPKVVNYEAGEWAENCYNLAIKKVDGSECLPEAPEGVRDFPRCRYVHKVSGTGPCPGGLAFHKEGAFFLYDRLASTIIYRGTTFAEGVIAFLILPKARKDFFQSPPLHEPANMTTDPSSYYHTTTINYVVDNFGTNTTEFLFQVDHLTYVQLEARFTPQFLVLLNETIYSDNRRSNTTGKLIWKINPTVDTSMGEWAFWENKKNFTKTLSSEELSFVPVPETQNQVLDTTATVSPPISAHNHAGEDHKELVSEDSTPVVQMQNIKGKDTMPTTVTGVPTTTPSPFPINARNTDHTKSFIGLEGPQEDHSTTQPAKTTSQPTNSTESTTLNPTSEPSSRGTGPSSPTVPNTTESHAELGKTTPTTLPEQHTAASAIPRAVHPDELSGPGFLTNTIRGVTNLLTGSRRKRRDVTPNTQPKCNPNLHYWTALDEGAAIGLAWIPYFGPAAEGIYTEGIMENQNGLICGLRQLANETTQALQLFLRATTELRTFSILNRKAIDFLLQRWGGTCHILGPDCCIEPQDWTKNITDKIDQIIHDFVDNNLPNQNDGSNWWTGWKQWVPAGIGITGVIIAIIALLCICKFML

[4] = molecular target: T3, SUDV GP on rVSV particles (Sudan virus (SUDV), UniProt Q66814 33-676)
T3 sequence: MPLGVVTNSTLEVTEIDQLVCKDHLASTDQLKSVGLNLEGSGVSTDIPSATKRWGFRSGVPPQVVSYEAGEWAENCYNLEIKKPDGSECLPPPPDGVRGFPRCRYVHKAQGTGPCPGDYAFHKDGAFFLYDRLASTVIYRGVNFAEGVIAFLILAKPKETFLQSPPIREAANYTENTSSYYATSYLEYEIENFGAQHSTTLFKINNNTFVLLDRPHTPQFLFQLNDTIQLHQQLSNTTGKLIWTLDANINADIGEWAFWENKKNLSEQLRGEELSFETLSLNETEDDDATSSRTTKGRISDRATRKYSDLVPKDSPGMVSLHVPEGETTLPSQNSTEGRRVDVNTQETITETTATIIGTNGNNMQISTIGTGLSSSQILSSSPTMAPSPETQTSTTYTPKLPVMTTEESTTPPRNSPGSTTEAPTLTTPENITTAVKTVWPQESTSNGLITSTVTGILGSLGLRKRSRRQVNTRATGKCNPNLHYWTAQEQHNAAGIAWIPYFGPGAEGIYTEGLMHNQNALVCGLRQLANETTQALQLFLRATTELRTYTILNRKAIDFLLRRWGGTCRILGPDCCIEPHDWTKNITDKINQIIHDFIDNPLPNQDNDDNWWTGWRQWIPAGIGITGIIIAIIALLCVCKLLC

[5] = molecular target: T4, RESTV GP on rVSV particles (Reston virus (RESTV), UniProt Q66799 34-677)
T4 sequence: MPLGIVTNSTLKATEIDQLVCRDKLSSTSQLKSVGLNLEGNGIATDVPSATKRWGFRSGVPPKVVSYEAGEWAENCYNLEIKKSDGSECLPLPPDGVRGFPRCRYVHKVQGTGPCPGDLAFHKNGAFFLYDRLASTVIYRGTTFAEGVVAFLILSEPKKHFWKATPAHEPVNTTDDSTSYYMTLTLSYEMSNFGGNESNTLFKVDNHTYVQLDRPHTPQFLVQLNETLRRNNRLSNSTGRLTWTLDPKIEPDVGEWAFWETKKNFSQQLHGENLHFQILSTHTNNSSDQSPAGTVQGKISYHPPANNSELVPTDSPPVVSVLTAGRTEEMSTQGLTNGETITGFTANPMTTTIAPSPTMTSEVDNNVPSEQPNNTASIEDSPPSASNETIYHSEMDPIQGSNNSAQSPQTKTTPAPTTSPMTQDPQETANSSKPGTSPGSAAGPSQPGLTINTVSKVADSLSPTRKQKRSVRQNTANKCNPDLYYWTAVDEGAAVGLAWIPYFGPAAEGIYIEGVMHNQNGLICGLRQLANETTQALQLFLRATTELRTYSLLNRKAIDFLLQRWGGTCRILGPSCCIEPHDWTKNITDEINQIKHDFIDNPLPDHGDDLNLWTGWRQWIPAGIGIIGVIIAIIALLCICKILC

B1: PE-87 H100A (antibody, V domains shown)
VH: QVQLVQSGVTLVQPGGSLRVSCAASGFTFSSYAMSWVRQAPGKGLEWVSAISGLGGSTYYADSVKGRFTISRDNSKNTLYLQMNSLRAEDTAVYYCAKDARVWAAGYHFDYWGQGALVTVSS
VL: DIVLTQSPSTLSASVGDRVTITCRASQSISSWLAWYQQKPGEAPKLLISDASSLESGVPSRFSGSGSGTEFTLTISSLQPDDFATYYCQQYYSSPTFGGGTKVEIK
- IC50, half-maximal neutralization of viral infectivity (rVSV-GP) [1]: 1000 pM
- IC50, half-maximal neutralization of viral infectivity (rVSV-GP) [2]: 400 pM
- IC50, half-maximal neutralization of viral infectivity (rVSV-GP) [3]: 800 pM
- IC50, half-maximal neutralization of viral infectivity (rVSV-GP) [4]: 1000 pM
- IC50, half-maximal neutralization of viral infectivity (rVSV-GP) [5]: 200 pM

B2: PE-87 R101A (antibody, V domains shown)
VH: QVQLVQSGVTLVQPGGSLRVSCAASGFTFSSYAMSWVRQAPGKGLEWVSAISGLGGSTYYADSVKGRFTISRDNSKNTLYLQMNSLRAEDTAVYYCAKDHAVWAAGYHFDYWGQGALVTVSS
VL: DIVLTQSPSTLSASVGDRVTITCRASQSISSWLAWYQQKPGEAPKLLISDASSLESGVPSRFSGSGSGTEFTLTISSLQPDDFATYYCQQYYSSPTFGGGTKVEIK
- IC50, half-maximal neutralization of viral infectivity (rVSV-GP) [1]: 3200 pM
- IC50, half-maximal neutralization of viral infectivity (rVSV-GP) [2]: 400 pM
- IC50, half-maximal neutralization of viral infectivity (rVSV-GP) [3]: 1900 pM
- IC50, half-maximal neutralization of viral infectivity (rVSV-GP) [4]: 1500 pM
- IC50, half-maximal neutralization of viral infectivity (rVSV-GP) [5]: 200 pM

B3: PE-87 V102A (antibody, V domains shown)
VH: QVQLVQSGVTLVQPGGSLRVSCAASGFTFSSYAMSWVRQAPGKGLEWVSAISGLGGSTYYADSVKGRFTISRDNSKNTLYLQMNSLRAEDTAVYYCAKDHRAWAAGYHFDYWGQGALVTVSS
VL: DIVLTQSPSTLSASVGDRVTITCRASQSISSWLAWYQQKPGEAPKLLISDASSLESGVPSRFSGSGSGTEFTLTISSLQPDDFATYYCQQYYSSPTFGGGTKVEIK
- IC50, half-maximal neutralization of viral infectivity (rVSV-GP) [1]: 600 pM
- IC50, half-maximal neutralization of viral infectivity (rVSV-GP) [2]: 200 pM
- IC50, half-maximal neutralization of viral infectivity (rVSV-GP) [3]: 1000 pM
- IC50, half-maximal neutralization of viral infectivity (rVSV-GP) [4]: 1100 pM
- IC50, half-maximal neutralization of viral infectivity (rVSV-GP) [5]: 200 pM

B4: PE-87 W103A (antibody, V domains shown)
VH: QVQLVQSGVTLVQPGGSLRVSCAASGFTFSSYAMSWVRQAPGKGLEWVSAISGLGGSTYYADSVKGRFTISRDNSKNTLYLQMNSLRAEDTAVYYCAKDHRVAAAGYHFDYWGQGALVTVSS
VL: DIVLTQSPSTLSASVGDRVTITCRASQSISSWLAWYQQKPGEAPKLLISDASSLESGVPSRFSGSGSGTEFTLTISSLQPDDFATYYCQQYYSSPTFGGGTKVEIK
- IC50, half-maximal neutralization of viral infectivity (rVSV-GP) [2]: > 200000 pM
- IC50, half-maximal neutralization of viral infectivity (rVSV-GP) [3]: > 150000 pM

B5: PE-87 G106A (antibody, V domains shown)
VH: QVQLVQSGVTLVQPGGSLRVSCAASGFTFSSYAMSWVRQAPGKGLEWVSAISGLGGSTYYADSVKGRFTISRDNSKNTLYLQMNSLRAEDTAVYYCAKDHRVWAAAYHFDYWGQGALVTVSS
VL: DIVLTQSPSTLSASVGDRVTITCRASQSISSWLAWYQQKPGEAPKLLISDASSLESGVPSRFSGSGSGTEFTLTISSLQPDDFATYYCQQYYSSPTFGGGTKVEIK
- IC50, half-maximal neutralization of viral infectivity (rVSV-GP) [1]: 800 pM
- IC50, half-maximal neutralization of viral infectivity (rVSV-GP) [2]: 400 pM
- IC50, half-maximal neutralization of viral infectivity (rVSV-GP) [3]: 800 pM
- IC50, half-maximal neutralization of viral infectivity (rVSV-GP) [4]: 900 pM
- IC50, half-maximal neutralization of viral infectivity (rVSV-GP) [5]: 200 pM

B6: PE-87 Y107A (antibody, V domains shown)
VH: QVQLVQSGVTLVQPGGSLRVSCAASGFTFSSYAMSWVRQAPGKGLEWVSAISGLGGSTYYADSVKGRFTISRDNSKNTLYLQMNSLRAEDTAVYYCAKDHRVWAAGAHFDYWGQGALVTVSS
VL: DIVLTQSPSTLSASVGDRVTITCRASQSISSWLAWYQQKPGEAPKLLISDASSLESGVPSRFSGSGSGTEFTLTISSLQPDDFATYYCQQYYSSPTFGGGTKVEIK
- IC50, half-maximal neutralization of viral infectivity (rVSV-GP) [1]: 3000 pM
- IC50, half-maximal neutralization of viral infectivity (rVSV-GP) [2]: 800 pM
- IC50, half-maximal neutralization of viral infectivity (rVSV-GP) [3]: 800 pM
- IC50, half-maximal neutralization of viral infectivity (rVSV-GP) [4]: > 350000 pM
- IC50, half-maximal neutralization of viral infectivity (rVSV-GP) [5]: 1300 pM

B7: PE-87 H108A (antibody, V domains shown)
VH: QVQLVQSGVTLVQPGGSLRVSCAASGFTFSSYAMSWVRQAPGKGLEWVSAISGLGGSTYYADSVKGRFTISRDNSKNTLYLQMNSLRAEDTAVYYCAKDHRVWAAGYAFDYWGQGALVTVSS
VL: DIVLTQSPSTLSASVGDRVTITCRASQSISSWLAWYQQKPGEAPKLLISDASSLESGVPSRFSGSGSGTEFTLTISSLQPDDFATYYCQQYYSSPTFGGGTKVEIK
- IC50, half-maximal neutralization of viral infectivity (rVSV-GP) [1]: 3200 pM
- IC50, half-maximal neutralization of viral infectivity (rVSV-GP) [2]: 600 pM
- IC50, half-maximal neutralization of viral infectivity (rVSV-GP) [3]: 2200 pM
- IC50, half-maximal neutralization of viral infectivity (rVSV-GP) [4]: 2100 pM
- IC50, half-maximal neutralization of viral infectivity (rVSV-GP) [5]: 500 pM

B8: PE-87 F109A (antibody, V domains shown)
VH: QVQLVQSGVTLVQPGGSLRVSCAASGFTFSSYAMSWVRQAPGKGLEWVSAISGLGGSTYYADSVKGRFTISRDNSKNTLYLQMNSLRAEDTAVYYCAKDHRVWAAGYHADYWGQGALVTVSS
VL: DIVLTQSPSTLSASVGDRVTITCRASQSISSWLAWYQQKPGEAPKLLISDASSLESGVPSRFSGSGSGTEFTLTISSLQPDDFATYYCQQYYSSPTFGGGTKVEIK
- IC50, half-maximal neutralization of viral infectivity (rVSV-GP) [1]: 4200 pM
- IC50, half-maximal neutralization of viral infectivity (rVSV-GP) [2]: 300 pM
- IC50, half-maximal neutralization of viral infectivity (rVSV-GP) [3]: 2800 pM
- IC50, half-maximal neutralization of viral infectivity (rVSV-GP) [4]: 2100 pM
- IC50, half-maximal neutralization of viral infectivity (rVSV-GP) [5]: 400 pM

B9: PE-87 D99A (antibody, V domains shown)
VH: QVQLVQSGVTLVQPGGSLRVSCAASGFTFSSYAMSWVRQAPGKGLEWVSAISGLGGSTYYADSVKGRFTISRDNSKNTLYLQMNSLRAEDTAVYYCAKAHRVWAAGYHFDYWGQGALVTVSS
VL: DIVLTQSPSTLSASVGDRVTITCRASQSISSWLAWYQQKPGEAPKLLISDASSLESGVPSRFSGSGSGTEFTLTISSLQPDDFATYYCQQYYSSPTFGGGTKVEIK
- IC50, half-maximal neutralization of viral infectivity (rVSV-GP) [1]: > 500000 pM
- IC50, half-maximal neutralization of viral infectivity (rVSV-GP) [3]: > 350000 pM

— patent EP3583122A1 (dated 2019)
